# Source: patent US20120157824
# Legend:
# [1] = system: T1, GAGSGRSAGA oligopeptide sequence (SEQ ID NO: 66, deleted at the N-terminus by 1 residue and the C-terminus by 2 residues) linking Fe/Fe3O4/ASOX/stealth-nanoparticles into oligomers
# T1 sequence: GAGSGRSAGA
# [2] = system: T2, GAGSGRSAGAG linkage (SEQ ID NO: 66, deleted by 1 residue at each of the N-terminus and C-terminus) between nanoparticle and non-metalated TCPP
# T2 sequence: GAGSGRSAGAG
# [3] = system: T3, cleavage sequence DGGGSGRSAGGGD (SEQ ID NO: 65) coupled to TCPP and to stealth-coated Fe/Fe3O4 nanoparticles
# T3 sequence: DGGGSGRSAGGGD
# [4] = system: T4, cleavage sequence for urokinase DGAGSGRSAGAGD (SEQ ID NO: 66) linking porphyrin-labeled stealth coated Fe/Fe3O4 nanoparticles
# T4 sequence: DGAGSGRSAGAGD
# [5] = system: oligopeptide linker containing the urokinase-specific cleavage sequence SGRSA (SEQ ID NO: 2)
# [6] = system: urokinase consensus sequence linker DGGSGRSAGGGC (SEQ ID NO: 68) linking Fe/Fe3O4 nanoplatforms
# urokinase in rat urine, sequence (chain, as listed by the source): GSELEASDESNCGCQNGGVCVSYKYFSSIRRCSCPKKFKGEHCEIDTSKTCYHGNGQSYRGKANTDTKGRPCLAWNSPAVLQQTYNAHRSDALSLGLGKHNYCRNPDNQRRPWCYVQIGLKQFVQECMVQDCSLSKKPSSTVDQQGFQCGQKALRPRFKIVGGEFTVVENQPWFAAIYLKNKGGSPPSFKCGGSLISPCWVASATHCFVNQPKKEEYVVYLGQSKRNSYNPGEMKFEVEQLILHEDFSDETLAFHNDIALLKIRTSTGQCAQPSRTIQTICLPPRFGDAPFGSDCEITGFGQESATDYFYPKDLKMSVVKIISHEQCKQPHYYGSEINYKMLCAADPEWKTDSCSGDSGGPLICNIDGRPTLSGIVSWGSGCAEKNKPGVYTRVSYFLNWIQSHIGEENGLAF
# urokinase in canine urine, sequence (chain, as listed by the source): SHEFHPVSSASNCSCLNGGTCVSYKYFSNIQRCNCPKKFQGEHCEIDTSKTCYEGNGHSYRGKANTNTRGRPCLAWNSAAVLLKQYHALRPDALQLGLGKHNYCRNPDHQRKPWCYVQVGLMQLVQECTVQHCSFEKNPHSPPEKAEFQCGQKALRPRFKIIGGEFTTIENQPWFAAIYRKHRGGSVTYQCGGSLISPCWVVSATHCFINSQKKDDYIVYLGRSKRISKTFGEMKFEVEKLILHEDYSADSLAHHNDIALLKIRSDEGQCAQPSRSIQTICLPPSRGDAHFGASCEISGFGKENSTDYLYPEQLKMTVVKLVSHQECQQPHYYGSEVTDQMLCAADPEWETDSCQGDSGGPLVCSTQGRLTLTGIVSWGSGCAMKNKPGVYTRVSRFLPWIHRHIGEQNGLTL
substance,measurement,setting,value
"urokinase (Sigma Aldrich, St. Louis, Mo.)",T1 of H2O 10 minutes after adding 1×10^-14 mol urokinase per ml (3.004 seconds before),[1],"After 10 minutes, T1 had decreased to 2.003 seconds"
same,T2 of H2O 10 minutes after adding 1×10^-14 mol urokinase per ml (0.07579 seconds before),[1],T2 had increased to 0.1334 seconds
same,"fluorescence lifetime τ1, Fe/Fe3O4-linkage-TCPP plus urokinase (1×10^-7 M)",[2],1.39 ns
same,"fluorescence lifetime τ1, Fe/Fe3O4/ASOX/Au-linkage-TCPP plus urokinase (1×10^-7 M)",[2],1.47 ns
same,"fluorescence lifetime τ2, Fe/Fe3O4-linkage-TCPP plus urokinase (1×10^-7 M)",[2],30 ns
same,"fluorescence lifetime τ2, Fe/Fe3O4/ASOX/Au-linkage-TCPP plus urokinase (1×10^-7 M)",[2],29.3 ns
same,"overall fluorescence enhancement, 10 min. after urokinase was added",[2],The overall fluorescence enhancement of this system was approx. 75 (10 min. after urokinase was added)
same,"relative contribution f1, Fe/Fe3O4-linkage-TCPP plus urokinase (1×10^-7 M)",[2],78
same,"relative contribution f1, Fe/Fe3O4/ASOX/Au-linkage-TCPP plus urokinase (1×10^-7 M)",[2],80
same,"relative contribution f2, Fe/Fe3O4-linkage-TCPP plus urokinase (1×10^-7 M)",[2],22
same,"relative contribution f2, Fe/Fe3O4/ASOX/Au-linkage-TCPP plus urokinase (1×10^-7 M)",[2],20
same,"optical extinction (absorption + scattering) over 40 min, urokinase 1×10^-10 M",[3],the observable change of the extinction is caused by the change in scattering once the oligopeptide-tether is cleaved by the enzyme
same,signal intensity at 440 nm divided by signal intensity at 600 nm vs. time,[3],a linear slope has been obtained
same,r2/r1 (MRI relaxivity ratio) at t = 0 min,[4],-27.6
same,r2/r1 (MRI relaxivity ratio) at t = 5 min,[4],-21.9
same,r2/r1 (MRI relaxivity ratio) at t = 10 min,[4],-19.6
same,r2/r1 (MRI relaxivity ratio) at t = 15 min,[4],-16.8
same,r2/r1 (MRI relaxivity ratio) at t = 20 min,[4],-16.5
same,r2/r1 (MRI relaxivity ratio) at t = 25 min,[4],-15.8
same,r2/r1 (MRI relaxivity ratio) at t = 30 min,[4],-15.3
same,r2/r1 (MRI relaxivity ratio) at t = 40 min,[4],-14.8
same,r2/r1 (MRI relaxivity ratio) at t = 50 min,[4],-14.1
same,r2/r1 (MRI relaxivity ratio) at t = 60 min,[4],-13.5
same,T1 relaxivity r1 after protease cleavage of the linker,[5],r1 increased slightly to 180±20 mM s^-1
same,T2 relaxivity r2 after protease cleavage of the linker,[5],"r2 increased to -2,350±250 mM s^-1"
urokinase in canine urine,"fluorescence enhancement over time, Sample B (dog undergoing chemotherapy)",[5],"had a detectable enhancement in fluorescence than the control (Sample A), but was still much lower than Sample C"
same,"fluorescence enhancement over time, Sample C (dog just diagnosed with cancer)",[5],showed a rapid increase in fluorescence
urokinase in rat urine,"luminescence of TCPP released from the nanoplatform, 36 day urine",[5],the luminescence from TCPP increased steadily over time for the 36 day urine
same,"luminescence of TCPP released from the nanoplatform, control (5 day urine)",[5],The control (5 day urine) did not demonstrate a significant increase in luminescence
same,"UV/Vis backscattering spectrum of the nanoparticle-dimer over 120 minutes, rat urine (estimated urokinase 5×10^-10 M)",[6],The change in the optical properties is clearly discernible upon the cleavage of the oligopeptides-linker by urokinase
